# Data: patent publication US20260201058A1 (SICHUAN HUIYU PHARMACEUTICAL, published 2026)
# Positions count from the first letter of the chain named. Read-outs that look alike come from different tables or passages of the source.
# B1: 260-7-B11 nanobody (VHH)
# VHH: EVQLVESGGGLVQAGGSLRLSCAASGGTFLTYGMGWFRQAPGKEREFVAAINWSGSMTNYADSVKGRSTISRDNARNTVYLQMISLKPEDTAVYYCAAKTGAVAYIQKNEYDYWGQGTQVTVSS
# notes: Prokaryotically expressed VHH
# B2: 7B11 (Fc fusion)
# chain: EVQLVESGGGLVQAGGSLRLSCAASGGTFLTYGMGWFRQAPGKEREFVAAINWSGSMTNYADSVKGRSTISRDNARNTVYLQMISLKPEDTAVYYCAAKTGAVAYIQKNEYDYWGQGTQVTVSSGGGGSGGGGSDKTHTCPPCPAPEAAGAPSVFLFPPKPKDTLMISRTPEVTCVVVDVSHEDPEVKFNWYVDGVEVHNAKTKPREEQYNSTYRVVSVLTVLHQDWLNGKEYKCAVSNKALPAPIEKTISKAKGQPREPQVYTLPPSRDELTKNQVSLTCLVKGFYPSDIAVEWESNGQPENNYKTTPPVLDSDGSFFLYSKLTVDKSRWQQGNVFSCSVMHEALHNHYTQKSLSLSP
# notes: also called 7B11 VHH-Fc antibody (260-7-B11 fused to human IgG1 Fc)
# B3: 7B11_huGS_HM4 (Fc fusion)
# chain: B2 chain with A14P, E44G, R45L, S68F, R76K, I84N, K87R, P88A
# notes: Humanized VHH-Fc antibody
# B4: 4A7 hu-14 (Fc fusion)
# chain: EVQLLESGGGLVQAGGSLRLSCAASGRTFSSYVMGWFRQAPGKGLEFVSAISRAGSTYSADSVKGRFTISRDNSKNTLYLQMNSLRAEDTAVYYCAAGSSPTAIFGKSGMDYWGQGTQVTVSSGGGGSGGGGSDKTHTCPPCPAPEAAGAPSVFLFPPKPKDTLMISRTPEVTCVVVDVSHEDPEVKFNWYVDGVEVHNAKTKPREEQYNSTYRVVSVLTVLHQDWLNGKEYKCAVSNKALPAPIEKTISKAKGQPREPQVYTLPPSRDELTKNQVSLTCLVKGFYPSDIAVEWESNGQPENNYKTTPPVLDSDGSFFLYSKLTVDKSRWQQGNVFSCSVMHEALHNHYTQKSLSLSP
# notes: Humanized VHH-Fc antibody
# B5: 4A7 hu-15 (Fc fusion)
# chain: B4 chain with A14P, L45R
# notes: Humanized VHH-Fc antibody
# B6: 4A7 hu-16 (Fc fusion)
# chain: B4 chain with A14P, G44E, L45R
# notes: Humanized VHH-Fc antibody
# B7: 7B11_huGS_HM1 (Fc fusion)
# chain: B2 chain with A14P, E44G, R45L, S68F, R76K, I84N, K87R, P88A, Q119L
# notes: Humanized VHH-Fc antibody
# B8: 7B11_huBSM1 (Fc fusion)
# chain: B2 chain with E46V, S68F, R76K, I84R, K87T, P88S
# notes: Humanized VHH-Fc antibody
# B9: 7B11_huBSM_HM1 (Fc fusion)
# chain: B2 chain with E44G, R45L, E46V, S68F, R76K, I84R, K87T, P88S
# notes: Humanized VHH-Fc antibody
# B10: 7B11_huBSM_HM2 (Fc fusion)
# chain: B2 chain with S68F, R76K, I84R, K87T, P88S, Q119L
# notes: Humanized VHH-Fc antibody
# B11: 7B11_huGS1 (Fc fusion)
# chain: EVQLVESGGGLVQPGGSLRLSCAASGGTFLTYGMGWVRQAPGKGLEWVAAINWSGSMTNYADSVKGRFTISRDNAKNTVYLQMNSLRAEDTAVYYCAAKTGAVAYIQKNEYDYWGQGTLVTVSSGGGGSGGGGSDKTHTCPPCPAPEAAGAPSVFLFPPKPKDTLMISRTPEVTCVVVDVSHEDPEVKFNWYVDGVEVHNAKTKPREEQYNSTYRVVSVLTVLHQDWLNGKEYKCAVSNKALPAPIEKTISKAKGQPREPQVYTLPPSRDELTKNQVSLTCLVKGFYPSDIAVEWESNGQPENNYKTTPPVLDSDGSFFLYSKLTVDKSRWQQGNVFSCSVMHEALHNHYTQKSLSLSP
# notes: Humanized VHH-Fc antibody
# B12: 4A7 nanobody (VHH)
# VHH: EVQLVESGGGLVQAGDSLRLGCAASGRTFSTNVMGWFRQAPGKEREFVSAISRAGSTYSADSVKGRFTISRDNAENTVYLQMNSLKPEDTAVYYCAAGSSPTAIFGKSGMDYWGKGTLVTVSS
# notes: Prokaryotically expressed VHH; also called anti-PD-L1 nanobody 4A7
# Legend:
# [1] = biological target: T1, human PD-L1 on GS-C2 cells (cells overexpressing human PD-L1, GenScript, M00613) (human, UniProt Q9NZQ7 19-290); assay: cell-based or functional assay
# [2] = biological target: T1, human PD-L1 on GS-C2 cells (cells …); assay: flow cytometry on GS-C2 cells
# Protocol: Then PE-labeled goat anti-Flag fluorescent secondary antibody was added, and incubated on ice for 30 min. After washing with PBS, a flow cytometer was used for detection. EC₅₀ was fitted with the experimental data by GraphPad Prism.
# [3] = biological target: T2, human PD-L1 protein (ACRO, PD1-H5258) (human, UniProt Q9NZQ7 19-238); assay: SPR (Carterra LSA), nanobody on NiHC200M chip via His-Tag, PD-L1 as analyte
# T2 construct: Bought protein; also called Human PDL1-Fc
# Protocol: The measurement was conducted using a capture kinetics process. The test antibody was immobilized on the surface of the NiHC200M chip via His-Tag. After several rounds of blank buffer injection and stabilizing the detection baseline, human PD-L1 protein was injected as the analyte. Each round of injection consisted of 2 minutes of baseline, 8 minutes of binding, and 20 minutes of dissociation. After subtracting the reference point and zero concentration signal (Double Reference) from the original measurement data, the binding curve was fitted by Carterra LSA Kinetics software and the kinetic parameters were calculated.
# [4] = biological target: T1, human PD-L1 on GS-C2 cells (cells …); assay: flow cytometry competition on GS-C2 cells, competitor human PD-1-mFc 1.25 ug/mL
# Text: (§1) After washing with PBS, a flow cytometer was used for detection. IC₅₀ was fitted with experimental data by GraphPad Prism.
# [5] = biological target: T3, monkey PD-L1 (Cyno-PD-L1) on cells (monkey (cyno)); assay: flow cytometry competition on 293F-cyno PD-L1 cells, competitor monkey PD-1-hFc 1.25 ug/mL
# T3 construct: whole, on cells; also called CHO-cynoPDL1; 293F-cyno PD-L1 cells
# Text: as §1
# [6] = biological target: T1, human PD-L1 on GS-C2 cells (cells …); assay: cell-based or functional assay; remark: listed apart in the source
# [7] = biological target: T1, human PD-L1 on GS-C2 cells (cells …); assay: flow cytometry on GS-C2 cells; remark: listed apart in the source
# Text: (§2) After washing with PBS, a flow cytometer was used for detection.
# [8] = biological target: T3, monkey PD-L1 (Cyno-PD-L1) on cells; assay: flow cytometry on 293F-cyno PD-L1 cells
# Text: as §2
# [9] = biological target: T1, human PD-L1 on GS-C2 cells (cells …); assay: flow cytometry competition on GS-C2 cells, competitor human PD-1-mFc 1.25 ug/mL; remark: listed apart in the source
# Text: as §2
# [10] = biological target: T2, human PD-L1 protein (ACRO, PD1-H5258); assay: Carterra HC30M chip, antibody captured via anti-DYKDDDDK, PD-L1 as analyte
# Protocol: (§3) The anti-[…] antibody was bound to the HC30M chip via amino coupling, then […] of humanized PD-L1 single-domain antibody was captured. After the baseline was stabilized, gradient diluted human PD-L1 protein (ACRO, PD1-H5258) and monkey PD-L1 protein (Kactus Biosystems, PDL-CM210) (starting from 100 nM, gradient dilution) were flowed over the chip from low to high concentrations, with a binding time of 8 minutes and a dissociation time of 20 minutes. Kinetic constants were obtained by fitting with Carteria software.
# [11] = biological target: T4, monkey PD-L1 protein (Kactus Biosystems, PDL-CM210) (monkey); assay: as above
# T4 construct: Bought protein; also called Monkey PDL1-Fc
# Protocol: as §3
# [12] = biological target: T2, human PD-L1 protein (ACRO, PD1-H5258); assay: as above; remark: listed apart in the source
# Protocol: (§4) The anti-[…] antibody was bound to the HC30M chip via amino coupling, then 2 μg/mL of humanized PD-L1 single-domain antibody was captured. […] Kinetic constants were obtained by fitting with Carteria software.
# [13] = biological target: T4, monkey PD-L1 protein (Kactus …); assay: as above; remark: listed apart in the source
# Protocol: as §4
# [14] = biological target: T5, mouse PD-L1 protein (ACRO, PD1-M5251) (mouse, UniProt Q9EP73 19-238); assay: as above
# T5 construct: Bought protein; also called Mouse PDL1-Fc
# Protocol: as §4
# [15] = biological target: T2, human PD-L1 protein (ACRO, PD1-H5258); assay: Carterra HC30M chip, nanobody captured via anti-DYKDDDDK, PD-L1 as analyte
# Text: (§5) Kinetic constants were obtained by fitting with Carteria software.
# [16] = biological target: T4, monkey PD-L1 protein (Kactus …); assay: as above
# Text: as §5
# [17] = biological target: T5, mouse PD-L1 protein (ACRO, PD1-M5251); assay: as above
# Text: as §5
# [18] = biological target: T6, mouse PD-L1 on CHO-mPDL1 cells (mouse, UniProt Q9EP73 19-290); assay: flow cytometry competition on CHO-mPDL1 cells, competitor mouse PD-1-hFc 1.25 ug/mL
# T6 construct: whole, on cells
# Protocol: (§6) CHO-huPDL1, CHO-mPDL1, and CHO-cynoPDL1 cells were respectively taken, washed with PBS, and resuspended with 1% BSA. Then 1×10⁵ cells per well were added to a 96-well V-bottom plate. […] After washing with PBS, PE anti-human Fc (Biolegend, 410708) was added and incubated on ice for 30 min. After washing with PBS, a flow cytometer was used for detection. IC₅₀ was fitted with experimental data by GraphPad Prism.
# [19] = biological target: T7, human PD-L1 on CHO-huPDL1 cells (human, UniProt Q9NZQ7 19-290); assay: flow cytometry competition on CHO-huPDL1 cells, competitor human PD-1-hFc 1.25 ug/mL
# T7 construct: whole, on cells; also called CHO-hPDL1
# Protocol: as §6
# [20] = biological target: T3, monkey PD-L1 (Cyno-PD-L1) on cells; assay: flow cytometry competition on CHO-cynoPDL1 cells, competitor monkey PD-1-hFc 1.25 ug/mL
# Protocol: as §6
# T5 sequence (Q9EP73 19-238): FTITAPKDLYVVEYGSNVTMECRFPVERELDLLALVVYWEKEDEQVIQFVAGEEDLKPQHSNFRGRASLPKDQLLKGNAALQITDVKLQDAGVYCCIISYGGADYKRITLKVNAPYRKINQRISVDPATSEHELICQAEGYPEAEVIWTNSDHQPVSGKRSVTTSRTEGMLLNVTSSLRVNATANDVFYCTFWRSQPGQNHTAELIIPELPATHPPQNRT
# T2 sequence (Q9NZQ7 19-238): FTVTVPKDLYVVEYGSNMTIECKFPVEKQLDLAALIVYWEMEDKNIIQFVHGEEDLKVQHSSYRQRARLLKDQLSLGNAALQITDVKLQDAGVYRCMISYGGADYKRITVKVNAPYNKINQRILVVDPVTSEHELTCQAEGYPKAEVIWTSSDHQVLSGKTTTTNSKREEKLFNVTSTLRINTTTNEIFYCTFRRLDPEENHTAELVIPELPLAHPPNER
# T1 sequence (Q9NZQ7 19-290, one chain of several): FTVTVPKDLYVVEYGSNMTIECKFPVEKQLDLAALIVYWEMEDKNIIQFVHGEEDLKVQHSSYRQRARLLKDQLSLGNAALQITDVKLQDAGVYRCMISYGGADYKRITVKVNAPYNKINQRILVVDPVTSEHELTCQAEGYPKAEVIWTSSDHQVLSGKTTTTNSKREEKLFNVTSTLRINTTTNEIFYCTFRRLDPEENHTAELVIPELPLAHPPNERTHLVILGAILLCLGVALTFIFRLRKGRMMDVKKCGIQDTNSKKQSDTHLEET
# T7 sequence (Q9NZQ7 19-290): as the sequence (Q9NZQ7 19-290, one chain of several) above
# T6 sequence (Q9EP73 19-290): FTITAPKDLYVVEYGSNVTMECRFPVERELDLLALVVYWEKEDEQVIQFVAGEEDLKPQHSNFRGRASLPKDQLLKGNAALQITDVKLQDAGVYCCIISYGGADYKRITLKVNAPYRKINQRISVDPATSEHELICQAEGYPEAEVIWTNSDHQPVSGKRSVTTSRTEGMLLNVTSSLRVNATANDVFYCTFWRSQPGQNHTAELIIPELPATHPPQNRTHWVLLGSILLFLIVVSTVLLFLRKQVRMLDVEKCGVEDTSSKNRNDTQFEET
binder,measurement,setting,value
B1,"EC50 (nM), blocking of T cell PD-1/PD-L1 signaling pathway (GS-C2 cells with Jurket-NFAT-PD1 cells, luciferase)",[1],15.3 nM
same,EC50,[2],0.739 nM
same,Kd,[3],0.0243 nM
same,IC50,[4],0.396 nM
same,IC50,[5],0.627 nM
B2,"EC50 (nM), blocking of T cell PD-1/PD-L1 signaling pathway (GS-C2 cells with Jurket-NFAT-PD1 cells, luciferase)",[6],2.11 nM
same,EC50,[7],0.642 nM
same,EC50,[8],1.58 nM
same,IC50,[9],0.221 nM
B3,"EC50 (nM), blocking of T cell PD-1/PD-L1 signaling pathway (GS-C2 cells with Jurket-NFAT-PD1 cells, luciferase)",[6],1.97 nM
same,EC50,[7],0.729 nM
same,EC50,[8],2 nM
same,Kd,[10],0.035 nM
same,Kd,[11],0.0326 nM
same,IC50,[9],0.24 nM
B4,Kd,[12],60.9 nM
same,Kd,[13],76.5 nM
same,Kd,[14],9.7 nM
B5,Kd,[12],54.9 nM
same,Kd,[13],60.7 nM
same,Kd,[14],9.97 nM
B6,Kd,[12],45.1 nM
same,Kd,[13],75.3 nM
same,Kd,[14],9.82 nM
B7,Kd,[10],0.0294 nM
same,Kd,[11],0.0252 nM
B8,Kd,[10],0.0372 nM
same,Kd,[11],0.0294 nM
B9,Kd,[10],0.0382 nM
same,Kd,[11],0.0347 nM
B10,Kd,[10],0.0362 nM
same,Kd,[11],0.0307 nM
B11,Kd,[10],0.0815 nM
same,Kd,[11],0.0588 nM
B12,Kd,[15],147 nM
same,Kd,[16],221 nM
same,Kd,[17],99.1 nM
same,IC50,[18],1.83 nM
same,IC50,[19],1.35 nM
same,IC50,[20],3.55 nM
